Laboratory results as given in patent US20220251191A1 (ARCH ONCOLOGY, published 2022).
Substitutions are numbered along the chain they refer to.

T1: recombinant biotin tagged IL-7 Receptor-alpha (IL-7Rα) (Acrobiosystems #IL-7-H82F8) (UniProt P16871 21-236, biotin tag (site not stated))
T1 construct: Bought reagent; also called IL-7Ra; α receptor
T1 sequence (looked up): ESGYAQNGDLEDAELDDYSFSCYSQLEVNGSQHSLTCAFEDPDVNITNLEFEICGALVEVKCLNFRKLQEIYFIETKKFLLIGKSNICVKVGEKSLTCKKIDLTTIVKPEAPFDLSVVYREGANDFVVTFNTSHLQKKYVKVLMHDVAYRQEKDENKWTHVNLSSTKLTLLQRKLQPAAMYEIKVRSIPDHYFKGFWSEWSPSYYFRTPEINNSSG

T2: IL-7Rα with 20 nM receptor γ (UniProt P16871 21-236; P31785 23-262, biotin tag (site not stated))
T2 construct: Mixture of IL-7Rα and soluble receptor γ in the TR-FRET assay; The fit treated the receptor chains as one combined unit; also called IL-7Ra with the γ subunit; IL-7 with γ
T2 sequence (looked up) 1: T1 sequence (looked up)
T2 sequence (looked up) 2: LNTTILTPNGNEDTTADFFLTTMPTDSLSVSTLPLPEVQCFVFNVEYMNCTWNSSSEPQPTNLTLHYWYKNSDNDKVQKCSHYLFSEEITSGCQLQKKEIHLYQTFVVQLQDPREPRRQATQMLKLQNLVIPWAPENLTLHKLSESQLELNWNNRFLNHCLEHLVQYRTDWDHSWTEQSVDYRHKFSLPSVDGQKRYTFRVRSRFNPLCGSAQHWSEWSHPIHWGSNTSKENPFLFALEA

T3: IL-7Rα with 20 nM receptor γ (UniProt P16871 21-236; P31785 23-262, biotin tag (site not stated))
T3 chain 1: T1 sequence (looked up)
T3 chain 2: T2 sequence (looked up) 2

B1: IL-7 WT (commercial-sourced) (ligand)
chain: MDCDIEGKDGKQYESVLMVSIDQLLDSMKEIGSNCLNNEFNFFKRHICDANKEGMFLFRAARKLRQFLKMNSTGDFDLHLLKVSEGTTILLNCTGQVKGRKPAALGEAQPTKSLEENKSLKEQKKLNDLCFLKRLLQEIKTCWNKILMGTKEH
notes: also called commercially obtained IL-7; commercial IL-7
B2: IL-7 WT (in-house with His tag) (ligand)
chain: MDCDIEGKDGKQYESVLMVSIDQLLDSMKEIGSNCLNNEFNFFKRHICDANKEGMFLFRAARKLRQFLKMNSTGDFDLHLLKVSEGTTILLNCTGQVKGRKPAALGEAQPTKSLEENKSLKEQKKLNDLCFLKRLLQEIKTCWNKILMGTKEHENLYFQGHHHHHH
notes: also called IL-7 WT (in-house-His 6); in-house IL-7
B3: IL-7 S1 with C-terminal His-tag (ligand)
chain: B2 chain with K11I
notes: also called IL-7 mutant S1; S1 mutant

How the values were obtained:
[1] = target: T1, recombinant biotin tagged IL-7 …; experiment: binding analysis with two Kd parameters, in-house against commercially obtained IL-7 (taken to be TR-FRET on IL-7Rα)
[2] = target: T1, recombinant biotin tagged IL-7 …; experiment: TR-FRET ligand-receptor binding assay, equilibrium fit
Experimental: (§1) IL-7 binding affinity was determined by measuring the TR-FRET fluorescence signal at a range of concentrations of recombinant IL-7 and IL-7 Receptor-alpha (IL-7Rα). In a buffer of PBS (pH 7.4)+0.05% BSA and 0.005% Tween-20, make 4×stocks of 160 nM TR-FRET acceptor linked α6-his IgG (Perkin Elmer #TRF0105-M), 80 nM TR-FRET donor linked streptavidin (Perkin Elmer #AD0062), recombinant 6-his tagged IL-7 wildtype or mutant variant (at concentrations up to 160 nM), and recombinant biotin tagged IL-7Rα (Acrobiosystems #IL-7-H82F8) (at concentrations up to 80 nM). For each sample to be tested, 5 μL of the 4× stock of a6-his IgG linked acceptor is mixed with 5 μL of a 4×working stock of IL-7. Separately, for each sample, 5 μL of 4×TR-FRET donor linked to streptavidin is mixed with 5 μL of the 4×working stock of recombinant IL-7Rα linked to biotin. Mixtures were incubated at room temperature for 30 minutes during which the 10 μL of a6-his linked acceptor/IL-7 mix was distributed into indicated wells in 384-well shallow black ProxiPlate (Perkin Elmer #6008260) and kept covered from light. After the 30 min incubation, 10 μL of streptavidin linked donor/IL-7Ra mixture was placed in designated wells containing designated concentration of IL-7 plus acceptor. Plates were immediately spun at 750 rpm for 30 sec and then immediately placed in PHERAstar plate reader (BMG Labtech) to read TR-FRET signal. Continuously over the next 30 minutes, fluorescence for donor signal (337 nm excitation/620 nm emission) and acceptor signal (337 nm excitation/655 nm emission) are read. The TR-FRET binding signal is determined by taking the ratio of acceptor signal over donor signal and multiplying by 10,000. Equilibrium is defined at the time point where the readings plateau before fluorescence activity begins to decay. Equilibrium values are then fit to a standard equilibrium equation assuming single site binding using the graphing program GraFit (Erithacus Software).

[3] = target: T1, recombinant biotin tagged IL-7 …; experiment: TR-FRET, only the α receptor present (FIG. 4)
Experimental: as §1, with “Mixtures were incubated at room temperature for 30 minutes during which the 10 μL of a6-his linked acceptor/IL-7 mix was distributed into indicated wells in 384-well shallow black ProxiPlate (Perkin Elmer #6008260) and kept covered from light. After the 30 min incubation, 10 μL of streptavidin linked donor/IL-7Ra mixture was placed in designated wells containing designated concentration of IL-7 plus acceptor.” left out, “Equilibrium values are then fit to a standard equilibrium equation assuming single site binding using the graphing program GraFit (Erithacus Software).” left out

[4] = target: T2, IL-7Rα with 20 nM receptor γ; experiment: TR-FRET, with 20 nM receptor γ against without (FIG. 5)
Experimental: as §1, with “Mixtures were incubated at room temperature for 30 minutes during which the 10 μL of a6-his linked acceptor/IL-7 mix was distributed into indicated wells in 384-well shallow black ProxiPlate (Perkin Elmer #6008260) and kept covered from light. After the 30 min incubation, 10 μL of streptavidin linked donor/IL-7Ra mixture was placed in designated wells containing designated concentration of IL-7 plus acceptor.” left out, “Equilibrium values are then fit to a standard equilibrium equation assuming single site binding using the graphing program GraFit (Erithacus Software).” left out

[5] = target: T1, recombinant biotin tagged IL-7 …; experiment: TR-FRET, previous analyses
[6] = target: T1, recombinant biotin tagged IL-7 …; experiment: TR-FRET, His-tagged IL-7 and biotin IL-7Rα, equilibrium fit (FIG. 3)
Experimental: as §1, with “Mixtures were incubated at room temperature for 30 minutes during which the 10 μL of a6-his linked acceptor/IL-7 mix was distributed into indicated wells in 384-well shallow black ProxiPlate (Perkin Elmer #6008260) and kept covered from light. After the 30 min incubation, 10 μL of streptavidin linked donor/IL-7Ra mixture was placed in designated wells containing designated concentration of IL-7 plus acceptor.” left out, “Equilibrium values are then fit to a standard equilibrium equation assuming single site binding using the graphing program GraFit (Erithacus Software).” left out

[7] = target: T1, recombinant biotin tagged IL-7 …; experiment: TR-FRET, without receptor γ (FIG. 5)
Experimental: as §1, with “Mixtures were incubated at room temperature for 30 minutes during which the 10 μL of a6-his linked acceptor/IL-7 mix was distributed into indicated wells in 384-well shallow black ProxiPlate (Perkin Elmer #6008260) and kept covered from light. After the 30 min incubation, 10 μL of streptavidin linked donor/IL-7Ra mixture was placed in designated wells containing designated concentration of IL-7 plus acceptor.” left out, “Equilibrium values are then fit to a standard equilibrium equation assuming single site binding using the graphing program GraFit (Erithacus Software).” left out

[8] = target: T1, recombinant biotin tagged IL-7 …; experiment: TR-FRET, Expt. 1
Experimental: as §1, with “Mixtures were incubated at room temperature for 30 minutes during which the 10 μL of a6-his linked acceptor/IL-7 mix was distributed into indicated wells in 384-well shallow black ProxiPlate (Perkin Elmer #6008260) and kept covered from light. After the 30 min incubation, 10 μL of streptavidin linked donor/IL-7Ra mixture was placed in designated wells containing designated concentration of IL-7 plus acceptor.” left out, “Equilibrium values are then fit to a standard equilibrium equation assuming single site binding using the graphing program GraFit (Erithacus Software).” left out

[9] = target: T3, IL-7Rα with 20 nM receptor γ; experiment: TR-FRET; with gamma
[10] = target: T1, recombinant biotin tagged IL-7 …; experiment: TR-FRET, Expt. 2
Experimental: as §1, with “Mixtures were incubated at room temperature for 30 minutes during which the 10 μL of a6-his linked acceptor/IL-7 mix was distributed into indicated wells in 384-well shallow black ProxiPlate (Perkin Elmer #6008260) and kept covered from light. After the 30 min incubation, 10 μL of streptavidin linked donor/IL-7Ra mixture was placed in designated wells containing designated concentration of IL-7 plus acceptor.” left out, “Equilibrium values are then fit to a standard equilibrium equation assuming single site binding using the graphing program GraFit (Erithacus Software).” left out

[11] = target: T1, recombinant biotin tagged IL-7 …; experiment: TR-FRET, earlier analyses

Binder | fold higher Kd than in-house IL-7 [1] [fold] | Kd [2] [nM] | Kd [3] [nM] | fold increase in apparent affinity with receptor γ against without [4] [fold] | Kd [5] [nM] | Kd [6] [nM] | Kd [7] [nM] | Kd [8] [nM] | Kd [9] [nM] | Kd [10] [nM] | Kd [11] [nM]
B1 | ~4 | 21.7 | – | – | – | – | – | – | – | – | –
B2 | – | 17 | 20.2 | 5 | 6 | 5.44 | 12.1 | 14 | 2.75 | 20 | 6.6
B3 | – | 55 | 34.8 | – | – | – | – | 37 | – | 72 | –
